In paper PMC10023680, “Targeting Ras-binding domain of ELMO1 by computational nanobody design” (Communications Biology, 2023) one finds binding result and Kd data, which are given here for eight molecules.

What all share (conditions): both partners purified
In assay [1] the target is T1, RhoG (residues 1-184) (human, UniProt P84095 1-184).
T1 construct: human RhoG, residues 1-184; Loaded with GTPγS for the SPR assays; also called active RhoG; source: Sf9 (baculovirus), purified (HisTrap, TEV, Superdex 75); not shown: poly-histidine tag, N-terminal, cleaved
T1 sequence (P84095 1-184): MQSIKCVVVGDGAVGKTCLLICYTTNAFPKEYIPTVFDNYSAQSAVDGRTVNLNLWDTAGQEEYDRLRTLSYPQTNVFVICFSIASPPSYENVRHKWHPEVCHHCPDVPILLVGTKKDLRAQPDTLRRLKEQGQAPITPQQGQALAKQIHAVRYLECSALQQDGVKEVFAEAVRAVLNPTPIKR
The experiment in a line: SPR; Biacore T200; GST-ELMO1-RBD (1-113, wild-type or mutants) captured on CM5 chip with GST Capture Kit; GTPγS-bound RhoG injected at 2.2-35.5 μM (Rac1 and Cdc42 measured similarly); 10 mM HEPES pH 7.5, 150 mM NaCl, 1 mM MgCl2, 0.005% P-20; steady-state affinity analysis.

Assay [2] has as its target T1, RhoG (residues 1-184). The experiment in a line: crystal structure; equimolar ELMO1-RBD (residues 1-82) and RhoG mixed at 16 mg/ml, 4 °C for 4 h; hanging-drop vapor diffusion at 20 °C; 1.6 Å.
Assay [3] concerns the target ELMO1-RBD (residues 1-98) (Homo sapiens, UniProt Q92556). In words: SPR; Biacore T200; ELMO1-RBD (1-98) amine-coupled to CM5 chip; nanobody designs injected at five concentrations (0.5-8 μM); 10 mM HEPES pH 7.5, 150 mM NaCl, 0.005% P-20; single-cycle kinetic analysis.
Assay [4] concerns the target T2, ELMO1-RBD (residues 1-98) (Homo sapiens, UniProt Q92556).
T2 construct: source: E. coli cell-free protein synthesis, purified (HisTrap, HiTrap Q, Superdex 75); not shown: histidine tag, N-terminal, cleaved
In words: SPR; ELMO1-RBD (residues 1-98) immobilised on a CM5 chip by amine coupling; 10 mM HEPES pH 7.5, 150 mM NaCl, 0.005% surfactant P-20; five concentrations (0.5-8 uM) of each nanobody injected continuously; single-cycle kinetic analysis; Biacore T200. (SPR reads the build-up and loss of mass on a sensor chip optically.)

B1: GST-tagged ELMO1-RBD (residues 1-113), wild-type (domain or fragment, human, UniProt Q92556 1-113, looked up)
chain: MPPPADIVKVAIEWPGAYPKLMEIDQKKPLSAIIKEVCDGWSLANHEYFALQHADSSNFYITEKNRNEIKNGTILRLTTSPAQNAQQLHERIQSSSMDAKLEALKDLASLSRD
notes: the plasmids section describes only His-tagged ELMO1-RBD; also called ELMO1-RBD wild-type; not shown: GST, N-terminal, kept
As for B1, in assay [1], the binding result was “binds”.

B2: GST-tagged ELMO1-RBD (residues 1-113) N58A (domain or fragment, human, UniProt Q92556 1-113, looked up)
chain: MPPPADIVKVAIEWPGAYPKLMEIDQKKPLSAIIKEVCDGWSLANHEYFALQHADSSAFYITEKNRNEIKNGTILRLTTSPAQNAQQLHERIQSSSMDAKLEALKDLASLSRD
notes: not shown: GST, N-terminal, kept
Turning to B2, the binding result in assay [1] is reported as “binds”.

B3: GST-tagged ELMO1-RBD (residues 1-113) K20E (domain or fragment, human, UniProt Q92556 1-113, looked up)
chain: MPPPADIVKVAIEWPGAYPELMEIDQKKPLSAIIKEVCDGWSLANHEYFALQHADSSNFYITEKNRNEIKNGTILRLTTSPAQNAQQLHERIQSSSMDAKLEALKDLASLSRD
notes: as for B2
For B3, in assay [1], the binding result was “binds”.

B4: GST-tagged ELMO1-RBD (residues 1-113) Y18A (domain or fragment, human, UniProt Q92556 1-113, looked up)
chain: MPPPADIVKVAIEWPGAAPKLMEIDQKKPLSAIIKEVCDGWSLANHEYFALQHADSSNFYITEKNRNEIKNGTILRLTTSPAQNAQQLHERIQSSSMDAKLEALKDLASLSRD
notes: as for B2
On to B4, for which the binding result in assay [1] is recorded as “binds”.

B5: ELMO1-RBD (residues 1-82) (domain or fragment, human, UniProt Q92556 1-82, looked up)
chain: MPPPADIVKVAIEWPGAYPKLMEIDQKKPLSAIIKEVCDGWSLANHEYFALQHADSSNFYITEKNRNEIKNGTILRLTTSPA
Turning to B5, the binding result in assay [2] is given as “binds”.

B6: Nb29 (VHH)
VHH: VQLVESGGGLVQAGDSLRLSCAASGLLFSFYIMGWFRQAPGREREFVAAIKWAGDTIYGTDSVKGRFAISRDNAKNTMYLQMNSLKPEDTAVYYCAADRFLTRSVKYTYWGQGTQVTVSS
notes: as Nb01 (designed from PDB 5LMW chain A) with S57A, R67T, T68I (CDR2) and D137T (CDR3) relative to Nb01; keeps Leu29 and Lys59; numbers count on: AHo numbering; S57A, R67T, T68I and D137T are stated against Nb01, not against the parent 5LMW; the old residues may themselves be designed ones; source: E. coli cell-free protein synthesis (with DsbC and GSSG), purified (Ni Sepharose)
Turning to B6, binding in assay [3] was put at a Kd of 2000 nM.

B7: Nb29 (VHH)
VHH: VQLVESGGGLVQAGDSLRLSCAASGLLFSFYIMGWFRQAPGREREFVAAIKWAGDTIYGTDSVKGRFAISRDNAKNTMYLQMNSLKPEDTAVYYCAADRFLTRSVKYTYWGQGTQVTVSS
notes: It is Nb01 with S57A, R67T, T68I (CDR2) and D137T (CDR3); S57A, R67T, T68I and D137T are stated against Nb01, not against 5LMW; Numbers count on: AHo numbering; A TEV cleavage site follows the N-terminal poly-histidine tag, but no cleavage is described for the nanobodies; source: E. coli cell-free protein synthesis, purified (Ni Sepharose resin)
On to B7, for which, in assay [4], the Kd (commonly the constant that tells how readily two partners part at equilibrium) stood at 2020 nM.

B8: Nb02 (VHH)
VHH: VQLVESGGGLVQAGDSLRLSCAASGLMFSFYIMGWFRQAPGREREFVASITWAGDRTYGTDSVKGRFAISRDNAKNTMYLQMNSLKPEDTAVYYCAADRFLTRSVKYDYWGQGTQVTVSS
notes: designed from the parent nanobody chain A of PDB 5LMW; as Nb01 but with T29M and S59T instead of T29L and S59K; numbers count on: AHo numbering; source: E. coli cell-free protein synthesis (with DsbC and GSSG), purified (Ni Sepharose)
Consider B8, for which, in assay [3], the binding result was “no binding (tested: 0.5-8 μM)”.
